Experimental findings from paper PMC10421740, “A universal deep-learning model for zinc finger design enables transcription factor reprogramming” are described below.

Assay in all cases: Zn; U2OS eGFP disruption, 3 days after nucleofection
Settings in all cases: tags: N-terminal 3xFLAG and SV40 NLS (kept in the assay, left out here); copies: 1;1

The target of series [1] is ZFN pair Astr 27ABC + Astr 27FED (synthetic construct, UniProt P14870;P14870 384-579;384-579).
Series [2] concerns the target ZFN pair Astr 28ABC + Astr 28FED (synthetic construct, UniProt P14870;P14870 384-579;384-579).
The target in series [3] is ZFN pair Astr 24ABC + Astr 24FED (synthetic construct, UniProt P14870;P14870 384-579;384-579).
Series [4] has as its target ZFN pair Astr 20ABC + Astr 20FED (synthetic construct, UniProt P14870;P14870 384-579;384-579).
For series [5], the target named is ZFN pair Astr 25ABC + Astr 25FED (synthetic construct, UniProt P14870;P14870 384-579;384-579).
Series [6] addresses ZFN pair Astr 18ABC + Astr 18FED (synthetic construct, UniProt P14870;P14870 384-579;384-579).
For series [7], the target named is ZFN pair Astr 10ABC + Astr 10FED (synthetic construct, UniProt P14870;P14870 384-579;384-579).
In series [8] the target is ZFN pair Astr 26ABC + Astr 26FED (synthetic construct, UniProt P14870;P14870 384-579;384-579).
Series [9] addresses ZFN pair Astr 29ABC + Astr 29FED (synthetic construct, UniProt P14870;P14870 384-579;384-579).
For series [10], the target named is ZFN pair Astr 31ABC + Astr 31FED (synthetic construct, UniProt P14870;P14870 384-579;384-579).
Series [11] deals with ZFN pair Astr 12ABC + Astr 12FED (synthetic construct, UniProt P14870;P14870 384-579;384-579).
The target in series [12] is ZFN pair Astr 22ABC + Astr 22FED (synthetic construct, UniProt P14870;P14870 384-579;384-579).
In series [13] the target is ZFN pair Astr 30ABC + Astr 30FED (synthetic construct, UniProt P14870;P14870 384-579;384-579).
Series [14] addresses ZFN pair Astr 23ABC + Astr 23FED (synthetic construct, UniProt P14870;P14870 384-579;384-579).

Chain of ZFN pair Astr 30ABC + Astr 30FED (P14870 other isoform, or with tags, fused parts or gaps, chain 1 of 2): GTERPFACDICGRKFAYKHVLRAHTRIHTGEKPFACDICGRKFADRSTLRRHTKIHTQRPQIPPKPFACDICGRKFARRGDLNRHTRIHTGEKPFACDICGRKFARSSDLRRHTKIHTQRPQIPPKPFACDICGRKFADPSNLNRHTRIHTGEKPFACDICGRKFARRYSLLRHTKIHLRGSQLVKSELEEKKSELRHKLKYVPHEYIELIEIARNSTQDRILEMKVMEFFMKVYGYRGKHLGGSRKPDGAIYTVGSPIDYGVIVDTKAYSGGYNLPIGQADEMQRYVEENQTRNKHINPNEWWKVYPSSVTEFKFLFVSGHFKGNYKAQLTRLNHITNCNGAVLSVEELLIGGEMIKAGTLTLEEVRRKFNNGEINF
Chain of ZFN pair Astr 30ABC + Astr 30FED (P14870 other isoform, or with tags, fused parts or gaps, chain 2 of 2): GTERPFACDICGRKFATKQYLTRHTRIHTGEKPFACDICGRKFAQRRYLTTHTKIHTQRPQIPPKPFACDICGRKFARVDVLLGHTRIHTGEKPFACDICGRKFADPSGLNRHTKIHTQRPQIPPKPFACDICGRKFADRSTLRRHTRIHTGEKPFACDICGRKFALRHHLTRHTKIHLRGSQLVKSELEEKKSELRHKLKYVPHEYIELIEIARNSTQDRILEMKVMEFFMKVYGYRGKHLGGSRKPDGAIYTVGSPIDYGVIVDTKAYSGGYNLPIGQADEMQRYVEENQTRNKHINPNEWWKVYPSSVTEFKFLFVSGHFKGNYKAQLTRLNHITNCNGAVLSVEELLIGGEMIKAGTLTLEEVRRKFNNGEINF
Chain of ZFN pair Astr 22ABC + Astr 22FED (P14870 other isoform, or with tags, fused parts or gaps, chain 1 of 2): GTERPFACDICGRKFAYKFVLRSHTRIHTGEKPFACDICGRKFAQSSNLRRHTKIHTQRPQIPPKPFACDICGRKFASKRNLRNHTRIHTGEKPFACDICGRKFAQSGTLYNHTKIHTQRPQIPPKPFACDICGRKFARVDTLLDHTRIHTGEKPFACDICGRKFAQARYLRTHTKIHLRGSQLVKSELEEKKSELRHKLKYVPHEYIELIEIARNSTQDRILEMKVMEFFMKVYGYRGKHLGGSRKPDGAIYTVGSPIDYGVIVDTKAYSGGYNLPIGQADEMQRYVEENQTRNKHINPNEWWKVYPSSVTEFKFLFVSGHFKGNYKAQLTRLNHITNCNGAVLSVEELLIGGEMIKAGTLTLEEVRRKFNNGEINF
Chain of ZFN pair Astr 22ABC + Astr 22FED (P14870 other isoform, or with tags, fused parts or gaps, chain 2 of 2): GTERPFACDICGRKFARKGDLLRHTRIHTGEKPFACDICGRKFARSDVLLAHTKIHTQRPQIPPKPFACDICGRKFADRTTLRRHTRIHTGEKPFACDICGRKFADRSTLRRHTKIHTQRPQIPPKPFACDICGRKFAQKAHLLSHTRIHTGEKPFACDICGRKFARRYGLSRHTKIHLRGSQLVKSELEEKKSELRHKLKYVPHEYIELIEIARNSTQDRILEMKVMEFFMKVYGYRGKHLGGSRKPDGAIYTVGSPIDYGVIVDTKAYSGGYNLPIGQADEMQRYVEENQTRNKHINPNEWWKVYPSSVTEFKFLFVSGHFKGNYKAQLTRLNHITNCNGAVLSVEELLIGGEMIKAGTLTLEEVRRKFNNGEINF
Chain of ZFN pair Astr 12ABC + Astr 12FED (P14870 other isoform, or with tags, fused parts or gaps, chain 1 of 2): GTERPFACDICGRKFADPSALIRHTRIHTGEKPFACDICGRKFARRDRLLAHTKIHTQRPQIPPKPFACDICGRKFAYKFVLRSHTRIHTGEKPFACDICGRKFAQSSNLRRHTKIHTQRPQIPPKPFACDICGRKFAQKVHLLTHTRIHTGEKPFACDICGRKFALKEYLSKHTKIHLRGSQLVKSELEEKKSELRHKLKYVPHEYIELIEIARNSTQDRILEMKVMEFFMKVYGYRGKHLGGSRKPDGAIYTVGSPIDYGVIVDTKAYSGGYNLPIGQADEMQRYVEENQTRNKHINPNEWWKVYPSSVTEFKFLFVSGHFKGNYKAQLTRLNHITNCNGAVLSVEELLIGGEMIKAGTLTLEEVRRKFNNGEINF
Chain of ZFN pair Astr 12ABC + Astr 12FED (P14870 other isoform, or with tags, fused parts or gaps, chain 2 of 2): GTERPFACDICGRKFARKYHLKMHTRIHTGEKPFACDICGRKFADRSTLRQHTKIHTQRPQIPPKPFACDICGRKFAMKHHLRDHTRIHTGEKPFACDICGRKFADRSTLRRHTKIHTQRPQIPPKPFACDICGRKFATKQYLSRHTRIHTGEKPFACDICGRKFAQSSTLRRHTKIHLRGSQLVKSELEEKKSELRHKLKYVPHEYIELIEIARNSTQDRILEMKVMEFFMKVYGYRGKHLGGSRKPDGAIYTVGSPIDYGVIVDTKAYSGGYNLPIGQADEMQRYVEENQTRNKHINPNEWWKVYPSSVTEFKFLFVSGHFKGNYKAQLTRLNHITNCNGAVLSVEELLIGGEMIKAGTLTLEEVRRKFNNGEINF
Chain of ZFN pair Astr 23ABC + Astr 23FED (P14870 other isoform, or with tags, fused parts or gaps, chain 1 of 2): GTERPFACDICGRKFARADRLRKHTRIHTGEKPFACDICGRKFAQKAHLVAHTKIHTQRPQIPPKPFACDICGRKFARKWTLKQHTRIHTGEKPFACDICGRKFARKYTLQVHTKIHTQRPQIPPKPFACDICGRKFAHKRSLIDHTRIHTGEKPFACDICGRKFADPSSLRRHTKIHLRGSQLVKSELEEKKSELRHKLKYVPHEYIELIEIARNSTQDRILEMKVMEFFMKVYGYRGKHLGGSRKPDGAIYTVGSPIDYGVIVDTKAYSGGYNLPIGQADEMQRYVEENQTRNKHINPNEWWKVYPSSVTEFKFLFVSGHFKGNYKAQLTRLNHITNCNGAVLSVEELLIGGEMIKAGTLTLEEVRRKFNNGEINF
Chain of ZFN pair Astr 23ABC + Astr 23FED (P14870 other isoform, or with tags, fused parts or gaps, chain 2 of 2): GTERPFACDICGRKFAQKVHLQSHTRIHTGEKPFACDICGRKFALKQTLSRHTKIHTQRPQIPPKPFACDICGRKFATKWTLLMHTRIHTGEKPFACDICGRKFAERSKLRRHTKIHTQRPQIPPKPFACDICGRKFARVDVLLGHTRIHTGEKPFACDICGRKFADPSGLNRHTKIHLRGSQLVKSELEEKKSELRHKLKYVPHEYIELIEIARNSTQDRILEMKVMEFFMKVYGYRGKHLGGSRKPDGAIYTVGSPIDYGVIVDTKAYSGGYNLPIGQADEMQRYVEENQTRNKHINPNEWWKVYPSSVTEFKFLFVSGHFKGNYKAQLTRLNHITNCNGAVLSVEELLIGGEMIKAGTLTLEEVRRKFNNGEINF
Chain of ZFN pair Astr 25ABC + Astr 25FED (P14870 other isoform, or with tags, fused parts or gaps, chain 1 of 2): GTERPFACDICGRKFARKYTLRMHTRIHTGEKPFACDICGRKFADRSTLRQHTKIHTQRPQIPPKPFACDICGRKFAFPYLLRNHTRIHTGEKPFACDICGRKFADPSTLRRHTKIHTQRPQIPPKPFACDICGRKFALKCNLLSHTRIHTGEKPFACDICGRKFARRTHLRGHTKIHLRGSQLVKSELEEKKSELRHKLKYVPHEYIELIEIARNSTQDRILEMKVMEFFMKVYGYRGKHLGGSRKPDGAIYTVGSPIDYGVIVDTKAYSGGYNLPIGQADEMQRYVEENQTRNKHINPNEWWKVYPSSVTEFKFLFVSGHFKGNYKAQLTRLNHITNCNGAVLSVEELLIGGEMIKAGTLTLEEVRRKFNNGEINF
Chain of ZFN pair Astr 25ABC + Astr 25FED (P14870 other isoform, or with tags, fused parts or gaps, chain 2 of 2): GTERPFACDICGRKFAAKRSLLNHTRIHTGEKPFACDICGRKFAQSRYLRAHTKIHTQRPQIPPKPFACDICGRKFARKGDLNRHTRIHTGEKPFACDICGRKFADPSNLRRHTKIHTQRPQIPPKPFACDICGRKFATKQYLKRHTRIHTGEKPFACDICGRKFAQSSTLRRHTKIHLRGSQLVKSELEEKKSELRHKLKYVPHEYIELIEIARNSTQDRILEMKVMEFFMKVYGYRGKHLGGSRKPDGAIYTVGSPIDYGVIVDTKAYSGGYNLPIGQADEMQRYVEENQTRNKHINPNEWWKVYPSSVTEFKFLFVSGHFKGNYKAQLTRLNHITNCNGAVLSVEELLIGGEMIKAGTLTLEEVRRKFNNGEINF
Chain of ZFN pair Astr 20ABC + Astr 20FED (P14870 other isoform, or with tags, fused parts or gaps, chain 1 of 2): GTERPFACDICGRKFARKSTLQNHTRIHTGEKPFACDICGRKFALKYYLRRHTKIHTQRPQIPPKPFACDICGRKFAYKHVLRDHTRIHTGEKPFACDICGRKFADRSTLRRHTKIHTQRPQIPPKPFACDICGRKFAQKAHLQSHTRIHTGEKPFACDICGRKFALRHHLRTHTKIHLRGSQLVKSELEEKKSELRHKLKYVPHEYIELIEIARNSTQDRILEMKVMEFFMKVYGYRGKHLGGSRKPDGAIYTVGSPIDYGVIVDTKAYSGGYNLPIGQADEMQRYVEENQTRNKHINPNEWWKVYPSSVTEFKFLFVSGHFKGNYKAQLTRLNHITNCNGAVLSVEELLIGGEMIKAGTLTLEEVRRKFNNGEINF
Chain of ZFN pair Astr 20ABC + Astr 20FED (P14870 other isoform, or with tags, fused parts or gaps, chain 2 of 2): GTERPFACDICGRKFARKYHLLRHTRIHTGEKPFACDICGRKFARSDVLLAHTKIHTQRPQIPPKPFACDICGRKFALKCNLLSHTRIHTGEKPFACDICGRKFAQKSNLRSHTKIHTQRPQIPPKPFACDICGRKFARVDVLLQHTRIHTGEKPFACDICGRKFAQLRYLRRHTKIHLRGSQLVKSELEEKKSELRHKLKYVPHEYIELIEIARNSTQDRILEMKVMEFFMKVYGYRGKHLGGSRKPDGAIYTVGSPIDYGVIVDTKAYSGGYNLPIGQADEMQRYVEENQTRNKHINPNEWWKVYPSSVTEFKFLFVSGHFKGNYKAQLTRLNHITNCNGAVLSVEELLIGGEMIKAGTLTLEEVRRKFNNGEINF

B1: eGFP site 27 (12 fingers) (dsDNA)
DNA 1: TCCTGGGGCACAAGCTGGAGTACAACTACAACAGCCACAACGTCTATA
DNA 2: TATAGACGTTGTGGCTGTTGTAGTTGTACTCCAGCTTGTGCCCCAGGA
As for B1, in series [1], the binding signal is ~46 % GFP-negative cells (higher = more activity).

B2: eGFP site 28 (12 fingers) (dsDNA)
DNA 1: TCCAGGAGCGCACCATCTTCTTCAAGGACGACGGCAACTACAAGACCC
DNA 2: GGGTCTTGTAGTTGCCGTCGTCCTTGAAGAAGATGGTGCGCTCCTGGA
Turning to B2, the binding signal in series [2] was ~32 % GFP-negative cells (higher = more activity).

B3: eGFP site 24 (12 fingers) (dsDNA)
DNA 1: ACAACGTCTATATCATGGCCGACAAGCAGAAGAACGGCATCAAGGTGA
DNA 2: TCACCTTGATGCCGTTCTTCTGCTTGTCGGCCATGATATAGACGTTGT
Turning to B3, the binding signal in [3] was ~52 % GFP-negative cells (higher = more activity).

B4: eGFP site 20 (12 fingers) (dsDNA)
DNA 1: TCGAGCTGAAGGGCATCGACTTCAAGGAGGACGGCAACATCCTGGGGC
DNA 2: GCCCCAGGATGTTGCCGTCCTCCTTGAAGTCGATGCCCTTCAGCTCGA
With B4, in [4], the binding signal is ~42 % GFP-negative cells (higher = more activity).

B5: eGFP site 25 (12 fingers) (dsDNA)
DNA 1: GCGAGGGCGAGGGCGATGCCACCTACGGCAAGCTGACCCTGAAGTTCA
DNA 2: TGAACTTCAGGGTCAGCTTGCCGTAGGTGGCATCGCCCTCGCCCTCGC
With B5, the binding signal in series [5] is ~39 % GFP-negative cells (higher = more activity).

B6: eGFP site 18 (12 fingers) (dsDNA)
DNA 1: ACATGAAGCAGCACGACTTCTTCAAGTCCGCCATGCCCGAAGGCTACG
DNA 2: CGTAGCCTTCGGGCATGGCGGACTTGAAGAAGTCGTGCTGCTTCATGT
With B6, the binding signal in series [6] is ~71 % GFP-negative cells (higher = more activity).

B7: eGFP site 10 (12 fingers) (dsDNA)
DNA 1: TGCCACCTACGGCAAGCTGACCCTGAAGTTCATCTGCACCACCGGCAA
DNA 2: TTGCCGGTGGTGCAGATGAACTTCAGGGTCAGCTTGCCGTAGGTGGCA
Regarding B7, the binding signal in series [7] is ~78 % GFP-negative cells (higher = more activity).

B8: eGFP site 26 (12 fingers) (dsDNA)
DNA 1: CCGCGCCGAGGTGAAGTTCGAGGGCGACACCCTGGTGAACCGCATCGA
DNA 2: TCGATGCGGTTCACCAGGGTGTCGCCCTCGAACTTCACCTCGGCGCGG
As to B8, in series [8], the binding signal was ~47 % GFP-negative cells (higher = more activity).

B9: eGFP site 29 (12 fingers) (dsDNA)
DNA 1: CGGCCACAAGTTCAGCGTGTCCGGCGAGGGCGAGGGCGATGCCACCTA
DNA 2: TAGGTGGCATCGCCCTCGCCCTCGCCGGACACGCTGAACTTGTGGCCG
As for B9, the binding signal in [9] was ~40 % GFP-negative cells (higher = more activity).

B10: eGFP site 31 (12 fingers) (dsDNA)
DNA 1: GGCAAGCTGACCCTGAAGTTCATCTGCACCACCGGCAAGCTGCCCGTG
DNA 2: CACGGGCAGCTTGCCGGTGGTGCAGATGAACTTCAGGGTCAGCTTGCC
In the case of B10, the binding signal in series [10] is ~72 % GFP-negative cells (higher = more activity).

B11: eGFP site 12 (12 fingers) (dsDNA)
DNA 1: TGACCCTGAAGTTCATCTGCACCACCGGCAAGCTGCCCGTGCCCTGGC
DNA 2: GCCAGGGCACGGGCAGCTTGCCGGTGGTGCAGATGAACTTCAGGGTCA
On to B11, for which, in series [11], the binding signal was ~43 % GFP-negative cells (higher = more activity).

B12: eGFP site 22 (12 fingers) (dsDNA)
DNA 1: CAAGTTCAGCGTGTCCGGCGAGGGCGAGGGCGATGCCACCTACGGCAA
DNA 2: TTGCCGTAGGTGGCATCGCCCTCGCCCTCGCCGGACACGCTGAACTTG
As for B12, the binding signal in series [12] is ~73 % GFP-negative cells (higher = more activity).

B13: eGFP site 30 (12 fingers) (dsDNA)
DNA 1: CAAGGGCGAGGAGCTGTTCACCGGGGTGGTGCCCATCCTGGTCGAGCT
DNA 2: AGCTCGACCAGGATGGGCACCACCCCGGTGAACAGCTCCTCGCCCTTG
Consider B13, for which the binding signal in series [13] was ~14 % GFP-negative cells (higher = more activity).

B14: eGFP site 23 (12 fingers) (dsDNA)
DNA 1: GGCATCGACTTCAAGGAGGACGGCAACATCCTGGGGCACAAGCTGGAG
DNA 2: CTCCAGCTTGTGCCCCAGGATGTTGCCGTCCTCCTTGAAGTCGATGCC
For B14, in [14], the binding signal is ~35 % GFP-negative cells (higher = more activity).
